Where a chain is given by its changes, count along the chain named.
Tests used:
[1] = target: T1, mouse B7-H4 on the cell surface (mouse, UniProt Q7TSP5 25-257); assay: flow cytometry, transfected 293 cells
T1 construct: full-length, on transfected HEK293T cells
T1 sequence: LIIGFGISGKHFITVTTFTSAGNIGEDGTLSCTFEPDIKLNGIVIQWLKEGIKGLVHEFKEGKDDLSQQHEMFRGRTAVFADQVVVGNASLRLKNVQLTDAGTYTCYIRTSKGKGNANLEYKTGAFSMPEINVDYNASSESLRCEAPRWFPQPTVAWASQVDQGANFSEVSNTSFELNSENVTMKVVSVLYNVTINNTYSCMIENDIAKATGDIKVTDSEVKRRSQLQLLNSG
Protocol: (§1) The fucosylated and afucosylated anti B7-H4 antibodies were also characterized by flow cytometry. In these experiments, HEK293T cell lines were transfected to express full-length cynomolgus monkey, mouse, or rat B7-H4. In addition, the endogenous human B7-H4 expressing SK-BR-3 breast cancer cell lines were used to assess the cell binding potency of B7-H4 antibodies. […] Following incubation, cells were pelleted, washed, incubated with a secondary labeling antibody, and run on a flow cytometer. Data were analyzed using the FlowJo software. MFI was plotted vs. antibody concentration, and the EC50 cell binding potency was calculated using nonlinear regression curve fit (GraphPad Prism).

[2] = target: T2, cynomolgus monkey B7-H4 on the cell surface (cynomolgus monkey, UniProt Q7Z7D3 25-282 (human entry)); assay: flow cytometry, transfected 293 cells
T2 construct: full-length, on transfected HEK293T cells
T2 chain: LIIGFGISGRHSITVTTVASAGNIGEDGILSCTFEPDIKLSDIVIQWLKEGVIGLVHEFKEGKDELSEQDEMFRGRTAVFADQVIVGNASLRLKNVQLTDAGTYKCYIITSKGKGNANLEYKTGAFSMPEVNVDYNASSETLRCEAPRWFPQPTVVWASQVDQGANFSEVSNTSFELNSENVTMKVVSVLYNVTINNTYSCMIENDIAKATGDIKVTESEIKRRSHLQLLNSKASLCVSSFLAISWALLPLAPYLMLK
Protocol: as §1

[3] = target: T3, rat B7-H4 on the cell surface (rat, UniProt Q501W4 25-257); assay: flow cytometry, transfected 293 cells
T3 construct: full-length, on transfected HEK293T cells
T3 sequence: T1 sequence with R109H, Q228E
Protocol: as §1

[4] = target: T4, human B7-H4 on the cell surface (human, UniProt Q7Z7D3 25-282); assay: cell-based or functional assay
T4 sequence: T2 chain with I53L, L242F, A252S

[5] = target: T4, human B7-H4 on the cell surface; assay: flow cytometry, SK-BR-3 cells
Protocol: as §1

[6] = target: T5, B7-H4 IgV-huIgG1 (human); assay: SPR, protocol of Example 4
T5 construct: also called N-terminal domain of human B7-H4
Protocol: Briefly, anti-human Fab antibody was immobilized on a carboxyl-derivatized SPR chip surface, and anti-B7-H4 antibodies were captured on the resulting surface at 5 ug/ml for 30 seconds.

[7] = target: T4, human B7-H4 on the cell surface; assay: cell-based or functional assay; remark: listed apart in the source

B1: B7-H4 antibody 20506, fucosylated (antibody, human IgG1, kappa, V domains shown)
VH: QLQLQESGPGLVKPSETLSLTCTASGGSISHGGYYWSWIRQHPGKGLEWIGNIYYSGSTYYNPSLKSRVTMSVDTSKNQFSLKLSSVTAADTAVYYCARESSTISADFDLWGRGTLVTVSS
VL: DIQMTQSPSSVSASVGDRVTITCRASQGISRWLAWYQQKPGKAPKLLIYAASSLQSGVPSRFSGSGSGTDFTLTISSLQPEDFATYYCQQAHTFPYTFGGGTKVEIKR
modifications: normally fucosylated Fc glycan (made in CHO-x cells)
notes: human IgG1/kappa
- EC50 [1]: 1.77 nM
- EC50 [2]: 1.77 nM
- EC50 [3]: 3.25 nM
- aAPC Assay EC50 (IFNγ production) [4]: 0.95 nM
- EC50 [5]: 0.739 nM
- Kd [6]: 1.93 nM
- koff [6]: 0.000703 s⁻¹
- kon [6]: 365000 M⁻¹ s⁻¹
- ADCC Assay EC50 (SK-BR-3 target cells) [7]: 0.0135 nM
